In this assay the target is T1, human ADP-ribosyl cyclase 2 (BST1; CD157) (human, UniProt Q10588 33-293).
T1 construct: Endogenous BST1 on human cells (A549, H226, U937, AML blasts); also called Bone marrow stromal antigen 1; cell-surface human BST1
T1 sequence: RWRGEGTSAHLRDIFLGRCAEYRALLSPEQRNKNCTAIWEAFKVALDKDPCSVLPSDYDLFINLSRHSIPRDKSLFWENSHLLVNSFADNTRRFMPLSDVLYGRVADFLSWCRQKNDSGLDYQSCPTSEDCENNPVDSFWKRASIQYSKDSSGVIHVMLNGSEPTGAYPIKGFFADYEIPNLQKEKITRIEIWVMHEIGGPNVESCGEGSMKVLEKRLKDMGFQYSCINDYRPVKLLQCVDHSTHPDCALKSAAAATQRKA
Kind of assay: flow cytometry on A549 and H226 cells. The method, then:
The specificity of antibodies against the BST1 selected in Example 2 was tested by flow cytometry. To test the ability of the antibodies to bind to the cell surface BST1 protein, the antibodies were incubated with the BST1-expressing cells, A549 and H226, from human lung adenocarcinoma and human lung squamous carcinoma, respectively. Cells were washed in FACS buffer (DPBS, 2% FBS), centrifuged and resuspended in […] of the diluted primary BST1 antibody (also diluted in FACS buffer). The antibody-A549 complex was incubated on ice for 60 min and then washed twice with FACS buffer as described above. The cell-antibody pellet was resuspended in 100 μl of the diluted secondary antibody (also diluted in FACS buffer) and incubated on ice for 60 min on ice. The pellet was washed as before and resuspended in […] FACS buffer. The samples were loaded onto the BD FACScanto II flow sytometer and the data analyzed using the BD FACSdiva software.
For orientation: In flow cytometry, cells or beads pass a laser one at a time.

B1: BST1_A3 (Fab, V domains shown)
VH: QVQLQQSRAELVMPGASVKMSCKTSGYTFSDYWVHWVRQRPGQGLEWIGAIDGSDTFNDYSQKFKGRATLTVDESSSTVYMQLSSLTSEDSAVYYCARGGLLQYWGQGTTLTVSS
VL: DIQLTQSPASLSASVGETVTITCRASENIYSYLAWYQQKQGKSPQLLVYNTKTLGEGVPSRFSGSGSGTQFSLKINSLQPEDFGSYYCQHHYGTPFTFGSGTKLEIKR
Take B1: the binding result is “binds”.

The values are drawn from US20130273068A1 (published 2013).
